Results published in patent US20230192903A1 (published 2023).
Changes are numbered by the printed parent chain. Names may count otherwise.

Experiments:
Human CLDN18.2 [1] = molecular target: Human CLDN18.2 (human); assay: cell-based or functional assay
Human CLDN18.2 [2] = molecular target: T1, Human CLDN18.2 (human); assay: flow cytometry, NUGC4 cells (endogenous CLDN18.2)
T1 construct: the cell line is named under assay; also called hCLDN18.2; human CLDN18.2 antigen
Protocol: (§1) NUGC4 and NUGC4-hCLDN18.2 cells were cultured, digested with pancreatin and centrifuged to collect cells. The cells were collected and resuspended in buffer (PBS+1% FBS) at 1×10⁴ cells/well in a 96-well plate at 100 μL per well. Then the mixture was centrifuged at 350×g for 5 min, and the supernatant was removed.

human CD3 antigen = molecular target: T2, human CD3 antigen (human, UniProt P07766 23-126); assay: SPR (Biacore T200), human CD3 antigen amine-coupled on CM5 chip, 1:1 fit
T2 construct: also called Human CD3ϵ
Protocol: After the detection was completed, data fitting was carried out on the result pattern by adopting Biacore T200 Evaluation Software in a 1:1 binding fitting mode to obtain an equilibrium dissociation constant (KD).

Human CLDN18.2 [3] = molecular target: T1, Human CLDN18.2; assay: cell-based or functional assay; remark: listed apart in the source
Human CLDN18.2 [4] = molecular target: T1, Human CLDN18.2; assay: flow cytometry, NUGC4-hCLDN18.2 cells
Protocol: as §1

Human CLDN18.2 [5] = molecular target: T1, Human CLDN18.2; assay: cell-based or functional assay; remark: listed apart in the source
Human CLDN18.1 = molecular target: T3, Human CLDN18.1 (human, UniProt P56856 1-261); assay: flow cytometry, 293T-hCLDN18.1 cells
T3 construct: also called hCLDN18.1

Human CLDN18.2 [6] = molecular target: T1, Human CLDN18.2; assay: flow cytometry, NUGC4 cells (endogenous CLDN18.2); remark: listed apart in the source
Human CLDN18.2 [7] = molecular target: T1, Human CLDN18.2; assay: flow cytometry, NUGC4-hCLDN18.2 cells; remark: listed apart in the source
Protocol: as §1

B1: bispecific antibody CS3 (bispecific antibody, human IgG1, kappa)
light: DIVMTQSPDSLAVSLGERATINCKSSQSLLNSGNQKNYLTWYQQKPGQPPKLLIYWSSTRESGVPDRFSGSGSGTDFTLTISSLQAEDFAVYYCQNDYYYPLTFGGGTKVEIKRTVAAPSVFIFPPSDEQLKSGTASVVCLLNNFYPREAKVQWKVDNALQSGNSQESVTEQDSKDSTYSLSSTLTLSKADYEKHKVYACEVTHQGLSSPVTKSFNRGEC
heavy 1: EVQLVESGGGLVKPGGSLRLSCAASGFSFSNSAMSWVRQAPGKGLEWVSTISSGDSYTYYADSVKGRFTISRDNAKNSLYLQMNSLRAEDTAVYYCARQGYGNALDYWGQGTLVTVSSASTKGPSVFPLAPSSKSTSGGTAALGCLVKDYFPEPVTVSWNSGALTSGVHTFPAVLQSSGLYSLSSVVTVPSSSLGTQTYICNVNHKPSNTKVDKKVEPKSCDKTHTCPPCPAPPVAGPSVFLFPPKPKDTLMISRTPEVTCVVVDVSHEAPEVQFNWYVDGVEVHNAKTKPREEQFNSTFRVVSVLTVVHQDWLNGKEYKCKVSNKGLPAPIEKTISKTKGQPREPQVYTLPPCRDELTKNQVSLWCLVKGFYPSDIAVEWESNGQPENNYKTTPPVLDSDGSFFLYSKLTVDKSRWQQGNVFSCSVMHEALHNHYTQKSLSLSPGK
heavy 2: EVQLVESGGGLVKPGGSLRLSCAASGFSFSNSAMSWVRQAPGKGLEWVSTISSGDSYTYYADSVKGRFTISRDNAKNSLYLQMNSLRAEDTAVYYCARQGYGNALDYWGQGTLVTVSSASTKGPSVFPLAPSSKSTSGGTAALGCLVKDYFPEPVTVSWNSGALTSGVHTFPAVLQSSGLYSLSSVVTVPSSSLGTQTYICNVNHKPSNTKVDKKVEPKSCDKTHTAPAPAPAPAPAPAPAPQVQLVESGGGVVQPGRSLRLSCAASGFTFSTYAMNWVRQAPGKGLEWVARIRSKYNNYATYYADSVKDRFTISRDDSKNTLYLQMNSLRAEDTAVYYCARHGNFGNSYVSWFAYWGQGTLVTVSSGGGGSGGGGSGGGGSQTVVTQEPSLTVSPGGTVTLTCRSSTGAVTTSNYANWVQQKPGQAPRGLIGGTNKRAPGVPARFSGSLLGGKAALTLSGVQPEDEAEYYCALWYSNLWVFGGGTKVEIKGGGGSDKTHTCPPCPAPPVAGPSVFLFPPKPKDTLMISRTPEVTCVVVDVSHEAPEVQFNWYVDGVEVHNAKTKPREEQFNSTFRVVSVLTVVHQDWLNGKEYKCKVSNKGLPAPIEKTISKTKGQPREPQVCTLPPSRDELTKNQVSLSCAVKGFYPSDIAVEWESNGQPENNYKTTPPVLDSDGSFFLVSKLTVDKSRWQQGNVFSCSVMHEALHNHYTQKSLSLSPGK
notes: CSBODY structure: two 1E9.2 Fab arms; second heavy chain (first heavy entry) and first heavy chain with anti-CD3 scFv (2a5) between CH1 and Fc2
Induction of expression of CD25 EC50 (pM), NUGC4 (Human CLDN18.2 [1]): 5.38 pM | Induction of expression of CD25 EC50 (pM), NUGC4-hCLDN18.2 (Human CLDN18.2 [1]): 5.45 pM | Induction of expression of CD69 EC50 (pM), NUGC4 (Human CLDN18.2 [1]): 0.461 pM | Induction of expression of CD69 EC50 (pM), NUGC4-hCLDN18.2 (Human CLDN18.2 [1]): 1.45 pM | EC50 (Human CLDN18.2 [2]): 64 nM | Kd (human CD3 antigen): 10 nM | EC50 (pM), in vitro killing by hPBMC, NUGC4-hCLDN18.2 cells (Human CLDN18.2 [3]): 0.698 pM | EC50 (pM), in vitro killing by hPBMC, NUGC4 cells (Human CLDN18.2 [3]): 0.333 pM | EC50 (Human CLDN18.2 [4]): 31.5 nM

B2: bispecific antibody CS10 (bispecific antibody, human IgG1, kappa)
light: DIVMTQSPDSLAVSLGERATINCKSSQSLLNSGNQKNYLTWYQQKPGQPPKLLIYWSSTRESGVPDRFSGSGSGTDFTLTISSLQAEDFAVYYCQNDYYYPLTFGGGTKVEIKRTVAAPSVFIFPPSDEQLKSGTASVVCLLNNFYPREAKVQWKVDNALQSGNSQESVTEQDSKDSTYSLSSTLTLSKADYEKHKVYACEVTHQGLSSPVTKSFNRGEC
heavy 1: B1 heavy 1
heavy 2: not shown
notes: CSBODY structure: two 1E9.2 Fab arms; second heavy chain (first heavy entry) and first heavy chain with anti-CD3 scFv (L2K) between CH1 and Fc2
EC50 value for killing effect on NUGC4-hCLDN18.2 cells (Human CLDN18.2 [5]): < 0.01 nM | EC50 value for killing effect on NUGC4 cells (Human CLDN18.2 [5]): < 0.01 nM | binding result (Human CLDN18.1): no binding | EC50 (Human CLDN18.2 [6]): < 100 nM | EC50 (Human CLDN18.2 [7]): < 50 nM

B3: bispecific antibody Y18 (bispecific antibody, human IgG1, kappa)
light: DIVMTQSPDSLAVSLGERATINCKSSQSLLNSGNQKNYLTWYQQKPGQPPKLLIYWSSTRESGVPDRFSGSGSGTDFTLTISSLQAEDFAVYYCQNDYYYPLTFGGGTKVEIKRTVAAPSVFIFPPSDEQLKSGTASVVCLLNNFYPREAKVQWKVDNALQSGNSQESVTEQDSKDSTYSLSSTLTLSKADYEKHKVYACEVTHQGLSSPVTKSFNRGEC
heavy: B1 heavy 1
chain: not shown
notes: YBODY structure: anti-CLDN18.2 Fab arm (1E9.2) and second monomer anti-CD3 scFv (L2K)-Fc
EC50 value for killing effect on NUGC4-hCLDN18.2 cells (Human CLDN18.2 [5]): < 0.01 nM | EC50 value for killing effect on NUGC4 cells (Human CLDN18.2 [5]): < 0.01 nM | binding result (Human CLDN18.1): no binding | EC50 (Human CLDN18.2 [6]): < 100 nM | EC50 (Human CLDN18.2 [7]): < 50 nM

B4: bispecific antibody Y7 (bispecific antibody, human IgG1, kappa)
light: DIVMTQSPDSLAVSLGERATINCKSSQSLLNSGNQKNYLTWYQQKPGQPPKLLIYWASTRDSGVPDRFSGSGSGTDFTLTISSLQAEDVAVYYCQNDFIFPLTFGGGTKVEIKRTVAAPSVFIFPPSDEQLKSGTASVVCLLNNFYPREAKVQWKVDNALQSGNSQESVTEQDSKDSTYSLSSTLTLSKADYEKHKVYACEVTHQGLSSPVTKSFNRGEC
heavy: QVQLQESGPGLVKPSETLSLTCTVSGFSLTRYGVSWIRQPPGKGLEWIGVIWGEGNTNYNPSLKSRVTISKDSSKSQVSLKLSSVTAADTAVYYCARVNFGNALDYWGQGTLVTVSSASTKGPSVFPLAPSSKSTSGGTAALGCLVKDYFPEPVTVSWNSGALTSGVHTFPAVLQSSGLYSLSSVVTVPSSSLGTQTYICNVNHKPSNTKVDKKVEPKSCDKTHTCPPCPAPPVAGPSVFLFPPKPKDTLMISRTPEVTCVVVDVSHEAPEVQFNWYVDGVEVHNAKTKPREEQFNSTFRVVSVLTVVHQDWLNGKEYKCKVSNKGLPAPIEKTISKTKGQPREPQVYTLPPCRDELTKNQVSLWCLVKGFYPSDIAVEWESNGQPENNYKTTPPVLDSDGSFFLYSKLTVDKSRWQQGNVFSCSVMHEALHNHYTQKSLSLSPGK
chain: QVQLVESGGGVVQPGRSLRLSCAASGFTFSTYAMNWVRQAPGKGLEWVGRIRSKYNNYATYYADSVKDRFTISRDDSKNTLYLQMNSLRGEDTAVYYCARHGNFGNSYVSWFAYWGQGTLVTVSSGGGGSGGGGSGGGGSQTVVTQEPSLTVSPGGTVTLTCRSSTGAVTTSNYANWVQQKPGQAPRGLIGGTNKRAPGVPARFSGSLLGGKAALTLSGVQPEDEAEYTCALWYSNLWVFGGGTKVEIKGRGRGSDKTHTCPPCPAPPVAGPSVFLFPPKPKDTLMISRTPEVTCVVVDVSHEAPEVQFNWYVDGVEVHNAKTKPREEQFNSTFRVVSVLTVVHQDWLNGKEYKCKVSNKGLPAPIEKTISKTKGQPREPQVCTLPPSRDELTKNQVSLSCAVKGFYPSDIAVEWESNGQPENNYKTTPPVLDSDGSFFLVSKLTVDKSRWQQGNVFSCSVMHEALHNHYTQKSLSLSPGK
notes: YBODY structure: anti-CLDN18.2 Fab arm (2C6.9) and second monomer anti-CD3 scFv (Di6-2)-Fc
Induction of expression of CD25 EC50 (pM), NUGC4 (Human CLDN18.2 [1]): 15.7 pM | Induction of expression of CD25 EC50 (pM), NUGC4-hCLDN18.2 (Human CLDN18.2 [1]): 1.78 pM | Induction of expression of CD69 EC50 (pM), NUGC4 (Human CLDN18.2 [1]): 4.13 pM | Induction of expression of CD69 EC50 (pM), NUGC4-hCLDN18.2 (Human CLDN18.2 [1]): 0.465 pM | EC50 (Human CLDN18.2 [2]): 127 nM | Kd (human CD3 antigen): 4.86 nM | EC50 (pM), in vitro killing by hPBMC, NUGC4-hCLDN18.2 cells (Human CLDN18.2 [3]): 0.655 pM | EC50 (pM), in vitro killing by hPBMC, NUGC4 cells (Human CLDN18.2 [3]): 5.83 pM | EC50 (Human CLDN18.2 [4]): 25.4 nM

B5: bispecific antibody CS4 (bispecific antibody, human IgG1, kappa)
light: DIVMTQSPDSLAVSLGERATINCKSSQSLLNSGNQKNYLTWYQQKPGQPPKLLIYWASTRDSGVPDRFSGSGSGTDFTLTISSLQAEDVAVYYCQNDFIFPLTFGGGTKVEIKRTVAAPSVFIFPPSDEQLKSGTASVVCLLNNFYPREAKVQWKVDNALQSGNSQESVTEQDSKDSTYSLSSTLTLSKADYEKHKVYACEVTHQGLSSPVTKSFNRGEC
heavy 1: B4 heavy
heavy 2: QVQLQESGPGLVKPSETLSLTCTVSGFSLTRYGVSWIRQPPGKGLEWIGVIWGEGNTNYNPSLKSRVTISKDSSKSQVSLKLSSVTAADTAVYYCARVNFGNALDYWGQGTLVTVSSASTKGPSVFPLAPSSKSTSGGTAALGCLVKDYFPEPVTVSWNSGALTSGVHTFPAVLQSSGLYSLSSVVTVPSSSLGTQTYICNVNHKPSNTKVDKKVEPKSCDKTHTAPAPAPAPAPAPAPAPQVQLVESGGGVVQPGRSLRLSCAASGFTFSTYAMNWVRQAPGKGLEWVARIRSKYNNYATYYADSVKDRFTISRDDSKNTLYLQMNSLRAEDTAVYYCARHGNFGNSYVSWFAYWGQGTLVTVSSGGGGSGGGGSGGGGSQTVVTQEPSLTVSPGGTVTLTCRSSTGAVTTSNYANWVQQKPGQAPRGLIGGTNKRAPGVPARFSGSLLGGKAALTLSGVQPEDEAEYYCALWYSNLWVFGGGTKVEIKGGGGSDKTHTCPPCPAPPVAGPSVFLFPPKPKDTLMISRTPEVTCVVVDVSHEAPEVQFNWYVDGVEVHNAKTKPREEQFNSTFRVVSVLTVVHQDWLNGKEYKCKVSNKGLPAPIEKTISKTKGQPREPQVCTLPPSRDELTKNQVSLSCAVKGFYPSDIAVEWESNGQPENNYKTTPPVLDSDGSFFLVSKLTVDKSRWQQGNVFSCSVMHEALHNHYTQKSLSLSPGK
notes: CSBODY structure: two 2C6.9 Fab arms; second heavy chain (first heavy entry) and first heavy chain with anti-CD3 scFv (2a5) between CH1 and Fc2
Induction of expression of CD25 EC50 (pM), NUGC4 (Human CLDN18.2 [1]): 2.38 pM | Induction of expression of CD25 EC50 (pM), NUGC4-hCLDN18.2 (Human CLDN18.2 [1]): 1.19 pM | Induction of expression of CD69 EC50 (pM), NUGC4 (Human CLDN18.2 [1]): 0.446 pM | Induction of expression of CD69 EC50 (pM), NUGC4-hCLDN18.2 (Human CLDN18.2 [1]): 0.196 pM | EC50 (Human CLDN18.2 [2]): 23.4 nM | Kd (human CD3 antigen): 12 nM | EC50 (pM), in vitro killing by hPBMC, NUGC4-hCLDN18.2 cells (Human CLDN18.2 [3]): 0.306 pM | EC50 (pM), in vitro killing by hPBMC, NUGC4 cells (Human CLDN18.2 [3]): 0.94 pM | EC50 (Human CLDN18.2 [4]): 18.9 nM

B6: bispecific antibody Y4 (bispecific antibody, human IgG1, kappa)
light: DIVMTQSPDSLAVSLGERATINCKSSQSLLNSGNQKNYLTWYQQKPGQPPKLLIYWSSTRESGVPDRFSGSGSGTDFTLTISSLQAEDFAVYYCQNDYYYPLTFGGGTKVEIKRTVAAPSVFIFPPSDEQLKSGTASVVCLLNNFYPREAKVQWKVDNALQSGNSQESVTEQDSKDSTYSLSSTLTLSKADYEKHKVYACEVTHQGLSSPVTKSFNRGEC
heavy: B1 heavy 1
chain: B4 chain with G49A, G90A, T229Y
notes: YBODY structure: anti-CLDN18.2 Fab arm (1E9.2) and second monomer anti-CD3 scFv (2a5)-Fc
Induction of expression of CD25 EC50 (pM), NUGC4 (Human CLDN18.2 [1]): 12.2 pM | Induction of expression of CD25 EC50 (pM), NUGC4-hCLDN18.2 (Human CLDN18.2 [1]): 0.962 pM | Induction of expression of CD69 EC50 (pM), NUGC4 (Human CLDN18.2 [1]): 0.61 pM | Induction of expression of CD69 EC50 (pM), NUGC4-hCLDN18.2 (Human CLDN18.2 [1]): 0.67 pM | EC50 (Human CLDN18.2 [2]): 58.9 nM | Kd (human CD3 antigen): 5.74 nM | EC50 (pM), in vitro killing by hPBMC, NUGC4-hCLDN18.2 cells (Human CLDN18.2 [3]): 0.378 pM | EC50 (pM), in vitro killing by hPBMC, NUGC4 cells (Human CLDN18.2 [3]): 137 pM | EC50 (Human CLDN18.2 [4]): 24.4 nM
